Source: the supplement of paper PMC9112550, “Optimization of the antimicrobial peptide Bac7 by deep mutational scanning” (BMC Biology, 2022)

Each sequence was assayed on Escherichia coli TOP10 (assay: shrunken log2 fold change of peptide-encoding DNA abundance (4.5 h post-induction vs induction); higher = less antimicrobial activity (less host growth inhibition)). Settings: time post-induction: 4.5 h; library: site-saturation at positions 5, 18, 19, 20.
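Note: peptides expressed intracellularly from a pBAD plasmid library in pooled LB shake-flask culture, induced with 0.3% L-arabinose, DNA abundance read by NGS, three biological replicates, DESeq2 with apeglm shrinkage.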

Sequence | shrunken log2 fold change
RRIRERPPRLPRPRPRPARYPRP | 0.24
RRIRKRPPRLPRPRPRPNHTPRP | -0.213
RRIRCRPPRLPRPRPRPTHQPRP | 0.476
RRIRLRPPRLPRPRPRPENTPRP | -0.235
RRIRCRPPRLPRPRPRPNPRPRP | 0.378
RRIRKRPPRLPRPRPRPWDFPRP | 0.953
RRIRTRPPRLPRPRPRPQGDPRP | -0.0192
RRIRLRPPRLPRPRPRPMIGPRP | 0.0237
RRIRYRPPRLPRPRPRPITQPRP | -0.532
RRIRYRPPRLPRPRPRPIPLPRP | -0.418
RRIRGRPPRLPRPRPRPQTYPRP | 0.0285
RRIRTRPPRLPRPRPRPGEAPRP | 0.282
RRIRYRPPRLPRPRPRPQCQPRP | -0.00208
RRIRMRPPRLPRPRPRPYQCPRP | -0.118
RRIRIRPPRLPRPRPRPNDVPRP | -0.0102
RRIRVRPPRLPRPRPRPWRKPRP | 0.0283
RRIRHRPPRLPRPRPRPYPYPRP | -0.43
RRIRDRPPRLPRPRPRPSLSPRP | -0.0503
RRIRPRPPRLPRPRPRPQTIPRP | -0.0413
RRIRERPPRLPRPRPRPMTQPRP | 0.00826
RRIRTRPPRLPRPRPRPWNGPRP | -0.199
RRIRVRPPRLPRPRPRPPDEPRP | 0.621
RRIRSRPPRLPRPRPRPHAIPRP | -0.144
RRIRCRPPRLPRPRPRPQRSPRP | 2.66
RRIRQRPPRLPRPRPRPPACPRP | 0.162

Sequence | shrunken log2 fold change
RRIRARPPRLPRPRPRPYYDPRP | -0.215
RRIRNRPPRLPRPRPRPEDCPRP | -0.00844
RRIRRRPPRLPRPRPRPTAHPRP | 1.51
RRIRKRPPRLPRPRPRPQLWPRP | 0.539
RRIRRRPPRLPRPRPRPDNRPRP | 0.0484
RRIRNRPPRLPRPRPRPFAEPRP | -0.238
RRIRARPPRLPRPRPRPSYFPRP | -0.555
RRIRYRPPRLPRPRPRPFLGPRP | -0.0439
RRIRKRPPRLPRPRPRPCLEPRP | 0.0959
RRIRCRPPRLPRPRPRPCECPRP | -0.0911
RRIRMRPPRLPRPRPRPPCQPRP | 0.505
RRIRFRPPRLPRPRPRPCFTPRP | -0.237
RRIRDRPPRLPRPRPRPVNFPRP | 0.0142
RRIRSRPPRLPRPRPRPYVFPRP | -0.545
RRIRRRPPRLPRPRPRPIYFPRP | 0.124
RRIRCRPPRLPRPRPRPWNYPRP | -0.282
RRIRYRPPRLPRPRPRPFFCPRP | -0.644
RRIRCRPPRLPRPRPRPWERPRP | -0.118
RRIRFRPPRLPRPRPRPNYWPRP | -0.221
RRIRHRPPRLPRPRPRPQGSPRP | -0.109
RRIRDRPPRLPRPRPRPTDPPRP | 0.0862
RRIRWRPPRLPRPRPRPPTDPRP | 0.415
RRIRNRPPRLPRPRPRPCWNPRP | -0.429
RRIRKRPPRLPRPRPRPVAEPRP | 0.973
RRIRPRPPRLPRPRPRPAMWPRP | 0.251

Sequence | shrunken log2 fold change
RRIRARPPRLPRPRPRPFWGPRP | 0.0148
RRIRMRPPRLPRPRPRPDNWPRP | 0.402
RRIRQRPPRLPRPRPRPTMNPRP | -0.298
RRIRWRPPRLPRPRPRPKYEPRP | -0.0182
RRIRSRPPRLPRPRPRPQYKPRP | -0.464
RRIRQRPPRLPRPRPRPLPQPRP | 0.337
RRIRCRPPRLPRPRPRPDGNPRP | -0.158
RRIRPRPPRLPRPRPRPIHIPRP | -0.405
RRIRLRPPRLPRPRPRPILWPRP | -0.0294
RRIRYRPPRLPRPRPRPYPRPRP | -0.097
RRIRLRPPRLPRPRPRPWMRPRP | 0.892
RRIRCRPPRLPRPRPRPEPPPRP | 2.06
RRIRVRPPRLPRPRPRPCQKPRP | -0.0265
RRIRHRPPRLPRPRPRPSYDPRP | -0.0244
RRIRQRPPRLPRPRPRPVNCPRP | -0.0672
RRIRRRPPRLPRPRPRPGHCPRP | 0.0653
RRIRARPPRLPRPRPRPQNDPRP | 5.63e-05
RRIRLRPPRLPRPRPRPKHRPRP | -0.112
RRIRRRPPRLPRPRPRPIFPPRP | 0.69
RRIRMRPPRLPRPRPRPLGPPRP | 0.716
RRIRWRPPRLPRPRPRPPLIPRP | -0.0843
RRIRDRPPRLPRPRPRPWRGPRP | 0.196
RRIRMRPPRLPRPRPRPPWVPRP | 0.241
RRIRGRPPRLPRPRPRPQVYPRP | 0.23
RRIRVRPPRLPRPRPRPTCEPRP | 0.243

Sequence | shrunken log2 fold change
RRIRVRPPRLPRPRPRPQWAPRP | -0.0201
RRIRWRPPRLPRPRPRPFNFPRP | -0.272
RRIRRRPPRLPRPRPRPWDVPRP | -0.149
RRIRRRPPRLPRPRPRPYHYPRP | -0.717
RRIRTRPPRLPRPRPRPYSSPRP | 0.00157
RRIRLRPPRLPRPRPRPKDCPRP | -0.495
RRIRMRPPRLPRPRPRPGEEPRP | 3.02
RRIRYRPPRLPRPRPRPWKAPRP | -0.0135
RRIRVRPPRLPRPRPRPSAYPRP | -0.34
RRIRLRPPRLPRPRPRPINQPRP | -0.321
RRIRSRPPRLPRPRPRPITSPRP | -0.0517
RRIRTRPPRLPRPRPRPNQTPRP | -0.155
RRIRNRPPRLPRPRPRPASKPRP | 0.0111
RRIRCRPPRLPRPRPRPSKFPRP | -0.17
RRIRVRPPRLPRPRPRPAWRPRP | 0.712
RRIRERPPRLPRPRPRPYRRPRP | -0.0227
RRIRTRPPRLPRPRPRPAELPRP | 0.112
RRIRVRPPRLPRPRPRPWLTPRP | -0.147
RRIRNRPPRLPRPRPRPVPQPRP | 0.24
RRIRARPPRLPRPRPRPPRYPRP | 0.896
RRIRMRPPRLPRPRPRPPLRPRP | 0.852
RRIRRRPPRLPRPRPRPGELPRP | 0.12
RRIRIRPPRLPRPRPRPFRSPRP | -0.221
RRIRARPPRLPRPRPRPAGEPRP | 0.921
RRIRCRPPRLPRPRPRPTNCPRP | -0.282

Sequence | shrunken log2 fold change
RRIRFRPPRLPRPRPRPEQPPRP | 0.0505
RRIRQRPPRLPRPRPRPCIVPRP | -0.747
RRIRWRPPRLPRPRPRPLLSPRP | 0.148
RRIRGRPPRLPRPRPRPCRLPRP | 0.123
RRIRMRPPRLPRPRPRPLWKPRP | 0.0435
RRIRDRPPRLPRPRPRPAAIPRP | 0.272
RRIRKRPPRLPRPRPRPECLPRP | 0.182
RRIRVRPPRLPRPRPRPTTLPRP | -0.111
RRIRWRPPRLPRPRPRPIMDPRP | -0.195
RRIRTRPPRLPRPRPRPEEQPRP | 0.0262
RRIRHRPPRLPRPRPRPIPIPRP | -0.115
RRIRYRPPRLPRPRPRPHGVPRP | -0.261
RRIRSRPPRLPRPRPRPCGFPRP | -0.0141
RRIRCRPPRLPRPRPRPILNPRP | -0.431
RRIRIRPPRLPRPRPRPKQWPRP | -0.0255
RRIRVRPPRLPRPRPRPREKPRP | 0.179
RRIRSRPPRLPRPRPRPLTAPRP | -0.0374
RRIRARPPRLPRPRPRPFAPPRP | 0.61
RRIRFRPPRLPRPRPRPWWLPRP | -0.0533
RRIRLRPPRLPRPRPRPTNRPRP | 0.267
RRIRTRPPRLPRPRPRPWSAPRP | -0.152
RRIRWRPPRLPRPRPRPHHVPRP | -0.108
RRIRLRPPRLPRPRPRPLMPPRP | -0.0944
RRIRIRPPRLPRPRPRPVWDPRP | -0.14
RRIRVRPPRLPRPRPRPNADPRP | -0.00824
